In publication doi:10.1101/748145 (bioRxiv, 2019):

B1: LetB four-ring truncation mutant (rings 2-4 deleted), TM helix removed (domain or fragment)
chain: QDRGNTVTIDFMSADGIVPGRTPVRYQGVEVGTVQDISLSDDLRKIEVKVSIKSDMKDALREETQFWLVTPKASLAGVSGLDALVGGNYIGMMPGKGKEQDHFVALDTQPKYRLDNGNLEKALENSLSDLPTTTVSLSAETLPDVQAGSVVLYRKFEVGEVITVRPRANAFDIDLHIKPEYRNLLTSNSVFWAEGGAKVQLNGSGLTVQASPLSRALKGAISFDNLSGASASQRKGDKRILYASETAARAVGGQITLHAFDAGKLAVGMPIRYLGIDIGQIQTLDLITARNEVQAKAVLYPEYVQTFARGGTRFSVVTPQISAAGVEHLDTILQPYINVEPGRGNPRRDFELQEATITDSRYLDGLSIIVEAPEAGSLGIGTPVLFRGLEVGTVTGMTLGTLSDRVMIAMRISKRYQHLVRNNSVFWLASGYSLDFGLTGGVVKTGTFNQFIRGGIAFATPPGTPLAPKAQEGKHFLLQESEPKEWREWGTALPK
B2: LetB periplasmic portion (residues 43-877) (domain or fragment, E. coli, UniProt P76272 43-877, looked up)
chain: QDRGNTVTIDFMSADGIVPGRTPVRYQGVEVGTVQDISLSDDLRKIEVKVSIKSDMKDALREETQFWLVTPKASLAGVSGLDALVGGNYIGMMPGKGKEQDHFVALDTQPKYRLDNGDLMIHLQAPDLGSLNSGSLVYFRKIPVGKVYDYAINPNKQGVVIDVLIERRFTDLVKKGSRFWNVSGVDANVSISGAKVKLESLAALVNGAIAFDSPEESKPAEAEDTFGLYEDLAHSQRGVIIKLELPSGAGLTADSTPLMYQGLEVGQLTKLDLNPGGKVTGEMTVDPSVVTLLRENTRIELRNPKLSLSDANLSALLTGKTFELVPGDGEPRKEFVVVPGEKALLHEPDVLTLTLTAPESYGIDAGQPLILHGVQVGQVIDRKLTSKGVTFTVAIEPQHRELVKGDSKFVVNSRVDVKVGLDGVEFLGASASEWINGGIRILPGDKGEMKASYPLYANLEKALENSLSDLPTTTVSLSAETLPDVQAGSVVLYRKFEVGEVITVRPRANAFDIDLHIKPEYRNLLTSNSVFWAEGGAKVQLNGSGLTVQASPLSRALKGAISFDNLSGASASQRKGDKRILYASETAARAVGGQITLHAFDAGKLAVGMPIRYLGIDIGQIQTLDLITARNEVQAKAVLYPEYVQTFARGGTRFSVVTPQISAAGVEHLDTILQPYINVEPGRGNPRRDFELQEATITDSRYLDGLSIIVEAPEAGSLGIGTPVLFRGLEVGTVTGMTLGTLSDRVMIAMRISKRYQHLVRNNSVFWLASGYSLDFGLTGGVVKTGTFNQFIRGGIAFATPPGTPLAPKAQEGKHFLLQESEPKEWREWGTALPK
B3: LetB six-ring truncation mutant (ring 6 deleted), TM helix removed (domain or fragment)
chain: QDRGNTVTIDFMSADGIVPGRTPVRYQGVEVGTVQDISLSDDLRKIEVKVSIKSDMKDALREETQFWLVTPKASLAGVSGLDALVGGNYIGMMPGKGKEQDHFVALDTQPKYRLDNGDLMIHLQAPDLGSLNSGSLVYFRKIPVGKVYDYAINPNKQGVVIDVLIERRFTDLVKKGSRFWNVSGVDANVSISGAKVKLESLAALVNGAIAFDSPEESKPAEAEDTFGLYEDLAHSQRGVIIKLELPSGAGLTADSTPLMYQGLEVGQLTKLDLNPGGKVTGEMTVDPSVVTLLRENTRIELRNPKLSLSDANLSALLTGKTFELVPGDGEPRKEFVVVPGEKALLHEPDVLTLTLTAPESYGIDAGQPLILHGVQVGQVIDRKLTSKGVTFTVAIEPQHRELVKGDSKFVVNSRVDVKVGLDGVEFLGASASEWINGGIRILPGDKGEMKASYPLYANLEKALENSLSDLPTTTVSLSAETLPDVQAGSVVLYRKFEVGEVITVRPRANAFDIDLHIKPEYRNLLTSNSVFWAEGGAKVQLNGSGLTVQASPLSRALKGAISFDNLSGASASQRKGDKRILYASETAARAVTITDSRYLDGLSIIVEAPEAGSLGIGTPVLFRGLEVGTVTGMTLGTLSDRVMIAMRISKRYQHLVRNNSVFWLASGYSLDFGLTGGVVKTGTFNQFIRGGIAFATPPGTPLAPKAQEGKHFLLQESEPKEWREWGTALPK
B4: LetB five-ring truncation mutant (rings 5 and 6 deleted), TM helix removed (domain or fragment)
chain: QDRGNTVTIDFMSADGIVPGRTPVRYQGVEVGTVQDISLSDDLRKIEVKVSIKSDMKDALREETQFWLVTPKASLAGVSGLDALVGGNYIGMMPGKGKEQDHFVALDTQPKYRLDNGDLMIHLQAPDLGSLNSGSLVYFRKIPVGKVYDYAINPNKQGVVIDVLIERRFTDLVKKGSRFWNVSGVDANVSISGAKVKLESLAALVNGAIAFDSPEESKPAEAEDTFGLYEDLAHSQRGVIIKLELPSGAGLTADSTPLMYQGLEVGQLTKLDLNPGGKVTGEMTVDPSVVTLLRENTRIELRNPKLSLSDANLSALLTGKTFELVPGDGEPRKEFVVVPGEKALLHEPDVLTLTLTAPESYGIDAGQPLILHGVQVGQVIDRKLTSKGVTFTVAIEPQHRELVKGDSKFVVNSRVDVKVGLDGVEFLGASASEWINGGIRILPGDKGEMKASYPLYANLEKALENSLSDLPTTITDSRYLDGLSIIVEAPEAGSLGIGTPVLFRGLEVGTVTGMTLGTLSDRVMIAMRISKRYQHLVRNNSVFWLASGYSLDFGLTGGVVKTGTFNQFIRGGIAFATPPGTPLAPKAQEGKHFLLQESEPKEWREWGTALPK

What was measured:
negative stain EM = molecular target: the molecule itself; experiment: negative stain EM
cryo-EM structure = molecular target: the molecule itself; experiment: cryo-EM structure

Row | Protein | stoichiometry N (negative stain EM) | stoichiometry N (cryo-EM structure)
1 | B1 | 6 | 
2 | B2 |  | 6
3 | B3 | 6 | 
4 | B4 | 6 | 
